This is an account of results in patent US10393755B2, “Compositions and methods for treating eye infections and disease” (UNIVERSITY OF VIRGINIA PATENT FOUNDATION, priority 2014, dated 2019).

One data set has as its system HCE-T cells. Kind of data set: Ca2+ imaging (Fluo-4 AM). The class given is cell-based, human. The method, then: SV40-immortalized HCE-T cells (Riken Cell Bank, Japan) were grown in keratinocyte-SFM media (KSFM, Life Technologies, Rockville, Md.) containing bovine pituitary extract (BPE, 50 mg/ml) and epidermal growth factor (EGF, 5 ng/ml). Cell passages 4-6 were used for Ca2+ imaging, scratch and uptake assays in 35 mm coverslip-bottomed dishes. To optimize responsiveness upon stimuli, cells were starved with EGF and BPE free medium for 24 h before experimentation.
HCE-Ts were rinsed twice with Ca2+ and Mg2+ free phosphate buffer saline (PBS) and incubated at 37° C. for 20 min fresh KSFM medium containing […] calcium probe Fluo-4 AM (Invitrogen Life technologies, NY). […] The cells were illuminated at 488 nm, and their emission was monitored every 3.15 s at 510 nm using Zeiss LSM 510 Meta confocal microscope system. The field of interest contained 24 to 45 cells, and the fluorescent intensity change was calculated for each region with image-analysis software. Ca2+ dynamics were evaluated using the changes in fluorescence intensity of Fluo-4 AM. The data are presented as percentage change in fluorescence intensity at each time point (Ft) to the first time point (F0) reading: (Ft−F0)/F0×100%.

Data set [1] concerns NOD mice corneal epithelium. The data set can be described thus: Murine corneal abrasion and recovery study. The class given is in vivo, mouse. The method, then: Briefly, 12 week female NOD mice were anesthetized with an i.p. injection of xylaxine/ketamine (60-70 mg+5 mg/kg) and placed on a heating pad. After cleaning the ocular surface with eye wash (OCuSOFT, Inc., TX), the corneal epithelium of the right eye was removed down to the basement membrane using an algerbrush II (The Alger Company, Inc., TX); the left eye was left intact as a contra lateral control. Mice were allowed to heal for 24 h with 2 doses ([…]) of KSFM medium containing BPE (50 mg/ml) and EGF (5 ng/ml), […] LSI, […] SI, or no treatment at 12 h intervals. After staining the ocular surface with […] 0.6 mg/ml fluorescein (Akorn, Ill.), images of the abrasion wound were captured using a Moticam 2300 camera after 12 h and 24 h.

Data set [2] is described as follows: Phase behavior and nanoparticle formation (optical density, DLS, TEM). The class given is physicochemical. Also on record: Phase transition temperature / Tt1, critical micelle temperature (CMT): dose or concentration left out as unconfirmed. The method, then: The phase diagram for LSI fusion protein was characterized by optical density change at 350 nm as a function of solution temperature using a DU800 UV-Vis Spectrophotometer (Beckman Coulter, Brea, Calif.). Tt was defined at the point of the maximum first derivative. Self-assembly of nanoparticles was measured using dynamic light scattering (DLS) using a DynaPro-LSR Plate Reader (Wyatt Technology, Santa Barbara, Calif.). Light scattering data were collected at regular temperature intervals (1° C.) as solutions were heated from 5 to 50° C. The results were analyzed using a Rayleigh sphere model and fitted into a cumulant algorithm based on the sum-of-squares value.
The TEM imaging was carried out on a FEI Tecnai 12 TWIN microscope (Hillsboro, Oreg.) at 100 kV. Briefly, a 100 uM solution (5 uL) was initially deposited on a copper grid with carbon film (CF400-Cu, Election Microscopy Sciences, Hatfield, Pa.). After removing the excess amount of solution with filter paper, the samples were negatively stained with 2% uranyl acetate, followed by removing excess uranyl acetate after 30 s. b The samples were then dried under room temperature for at least 3 h before use in imaging.

The next data set concerns HCE-T monolayers. The data set can be described thus: In vitro scratch closure assay. It counts as cell-based, human. Particulars: 10 nM, 24 h, compared to plain medium without growth factors. The method, then: For a scratch assay, confluent HCE-T monolayers were scraped in a straight line to create a scratch wound with a p200 pipet tip. Cells were rinsed with KSFM medium without BPE or EGF to remove debris and then incubated with fresh KSFM medium containing BPE (50 mg/ml) and EGF (5 ng/ml), LSI, or medium without growth factors (No treat). Phase contrast images of the wound at the beginning and after 24 h treatment were captured using Zeiss LSM 510 Meta confocal microscope system.

The subject of another data set is HCE-Ts. Kind of data set: Exogenous cell uptake assay (rhodamine labeled). The class given is cell-based, human. Particulars: NHS-rhodamine labeled. Here is the method:
SI and LSI nanoparticles were conjugated with NHS-rhodamine (Thermo Fisher Scientific Inc, Rockford, Ill.) via covalent modification of the amino terminus. Conjugation was performed in 100 mM borate buffer (pH 8.0) for 2 h (LSI) or overnight (SI) at 4° C. followed by desalting on a PD10 column (GE Healthcare, Piscataway, N.J.) to remove free dye. Briefly, after the cells were rinsed with fresh medium without BPE and EGF, […] rhodamine labeled proteins were added into the dish. After incubation at 37° C. for different time points, the cells were rinsed and images were acquired using Zeiss LSM 510 Meta confocal microscope system.

B1: LSI: lacritin fused to diblock ELP (VPGSG)48(VPGIG)48; forms thermoresponsive nanoparticles (protein)
chain: GEDASSDSTGADPAQEAGTSKPNEEISGPAEPASPPETTTTAQETSAAAVQGTAKVTSSRQELNPLKSIVEKSILLTEQALAKAGKGMHGGVPGGKQFIENGSEFAQKLLKKFSLLKPWAGLVPRGSGVPGSGVPGIGY
modifications: ELP lacritin fusion construct; (129)..(133) the sequence VPGSG is directly repeated 48 times; (134)..(138) The sequence VPGIG is directly repeated 48 times
notes: forms thermoresponsive nanoparticles
In the case of B1, in the data set on HCE-T cells (Fluo-4 AM loaded HCE-T cells), the “Maximum fluorescence intensity change compared to baseline (F0)” value is reported as 4.399+/−1.043 fold. The “Ca2+ influx peak duration on second treatment” value in the data set with HCE-T cells (same concentration, second time, from 40) came out at 70 s. In addition, the “Percentage of initial wound area (PctArea)” value in data set [1] (5 ml of 100 mM topical at 0 and 12 h, 12 and 24 hours, compared to SI, EGF+BPE, no treatment) is on record as “significantly decreased”. In data set [1] (12 h, eight mice per group), the “Abrasion wound healing, LSI compared with LS96” value is listed as “significantly (p<0.05) faster”. For the same molecule, the “Corneal epithelium histology after 24 h” value in data set [1] (hematoxylin and eosin) was “complete recovery”. Further, the “Tt1, critical micelle temperature (CMT)” value in data set [2] amounted to 32.3 °C. Moreover, the “Hydrodynamic radius compared with LS96” value in data set [2] (DLS, 37° C.) is “much larger hydrodynamic radius than LS96”. The “Nanoparticle size by DLS above Tt” value in data set [2] (above Tt) is recorded as 130-140 nm. Moreover, in data set [2] (below Tt), the “Nanoparticle size by DLS below Tt” value was 30-40 nm. Besides, the “Average diameter by TEM” value in data set [2] (dried from room temperature) is 67.1+/−11.5 nm. The same molecule gave a Phase transition temperature in data set [2] (optical density) of 18.4 °C. Also, the Scratch wound healing result in the data set with HCE-T monolayers is “significantly accelerated scratch wound healing”. Further, in the data set on HCE-Ts, the “Cytosolic fluorescence (cell uptake)” value is listed as “significantly higher cytosolic fluorescence than SI nanoparticles” and the “Time to significant cell entry” value is 10 m.
